# Tests used:
# DPPIV/V5/His (human) = DPPIV/V5/His (human) (UniProt P27487); experiment: cell-based or functional assay
# DPP8/V5/His (human) = DPP8/V5/His (human) (UniProt Q6V1X1); experiment: cell-based or functional assay
# Chain of DPP8/V5/His (human) (Q6V1X1 17-898): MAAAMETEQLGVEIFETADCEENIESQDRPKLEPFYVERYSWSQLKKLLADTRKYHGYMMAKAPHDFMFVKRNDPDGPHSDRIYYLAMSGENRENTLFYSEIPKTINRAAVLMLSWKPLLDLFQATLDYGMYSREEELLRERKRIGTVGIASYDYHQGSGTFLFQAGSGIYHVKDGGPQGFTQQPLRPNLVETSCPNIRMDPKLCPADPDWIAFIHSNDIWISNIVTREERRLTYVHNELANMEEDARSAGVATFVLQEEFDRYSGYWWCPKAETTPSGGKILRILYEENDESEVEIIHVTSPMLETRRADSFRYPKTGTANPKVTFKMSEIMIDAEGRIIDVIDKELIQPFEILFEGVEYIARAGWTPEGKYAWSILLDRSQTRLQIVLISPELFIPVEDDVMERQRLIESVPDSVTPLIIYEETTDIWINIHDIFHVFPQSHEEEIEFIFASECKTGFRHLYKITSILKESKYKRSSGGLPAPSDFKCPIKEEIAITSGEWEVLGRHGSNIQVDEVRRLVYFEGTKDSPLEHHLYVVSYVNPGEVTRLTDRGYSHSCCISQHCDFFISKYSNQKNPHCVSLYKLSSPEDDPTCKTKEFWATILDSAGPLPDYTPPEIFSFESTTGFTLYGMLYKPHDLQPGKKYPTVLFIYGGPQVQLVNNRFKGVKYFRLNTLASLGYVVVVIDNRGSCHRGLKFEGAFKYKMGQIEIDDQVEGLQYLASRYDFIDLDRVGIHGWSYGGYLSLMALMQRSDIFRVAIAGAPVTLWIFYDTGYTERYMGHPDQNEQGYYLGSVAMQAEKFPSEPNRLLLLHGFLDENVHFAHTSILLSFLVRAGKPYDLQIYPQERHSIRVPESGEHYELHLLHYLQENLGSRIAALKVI
# Chain of DPPIV/V5/His (human) (P27487 whole entry, form in doubt): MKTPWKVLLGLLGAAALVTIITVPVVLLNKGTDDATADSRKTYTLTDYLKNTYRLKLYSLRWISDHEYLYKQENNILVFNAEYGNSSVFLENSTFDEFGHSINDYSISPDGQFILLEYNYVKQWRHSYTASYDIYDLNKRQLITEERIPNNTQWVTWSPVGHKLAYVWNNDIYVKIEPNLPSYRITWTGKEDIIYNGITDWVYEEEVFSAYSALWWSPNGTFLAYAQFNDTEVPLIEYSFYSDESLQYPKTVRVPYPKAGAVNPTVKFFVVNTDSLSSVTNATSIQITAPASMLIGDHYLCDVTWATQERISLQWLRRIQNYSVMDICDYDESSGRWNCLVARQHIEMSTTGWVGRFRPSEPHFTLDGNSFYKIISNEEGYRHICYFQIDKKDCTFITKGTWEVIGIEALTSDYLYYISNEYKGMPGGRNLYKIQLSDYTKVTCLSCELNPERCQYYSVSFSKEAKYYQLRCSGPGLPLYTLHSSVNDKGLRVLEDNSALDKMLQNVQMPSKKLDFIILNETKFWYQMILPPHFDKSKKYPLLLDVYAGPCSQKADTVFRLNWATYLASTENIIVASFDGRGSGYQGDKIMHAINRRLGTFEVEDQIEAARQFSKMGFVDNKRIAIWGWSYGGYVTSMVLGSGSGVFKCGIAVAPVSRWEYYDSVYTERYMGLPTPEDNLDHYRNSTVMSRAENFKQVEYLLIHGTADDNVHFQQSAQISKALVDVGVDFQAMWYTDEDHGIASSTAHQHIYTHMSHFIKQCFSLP
substance,measurement,setting,value
Ala-Pro-Gly (peptide),"Residual activity (% of control), H-Gly-Pro-pNA hydrolysis, peptide at 10 mM",DPPIV/V5/His (human),67 % of control
same,"Residual activity (% of control), H-Ala-Pro-pNA hydrolysis, peptide at 10 mM",DPP8/V5/His (human),51 % of control

# Reference: patent publication US20040191826A1
